Laboratory results published in article PMC10175742.

Target: N-cadherin (UniProt P19022)
Assay: confocal 3D colocalisation
Conditions: reference: nonfailing control (NFC) heart tissue; sites S637,S647,T649,S650

Question: How did the “other: Pearson's correlation coefficient” value turn out when “αT-catenin (CTNNA3) (from UniProt Q9UI47) DCM heart tissue” was run?
Answer: Its value is “stronger; reference 0.55 ± 0.04”.
